Measured values taken from patent publication EP4703384A1 (Chia Tai Tianqing Pharmaceutical Group Co., Ltd., dated 2026).

What was measured:
human GPRC5D protein [1] = target: T1, human GPRC5D protein (human, UniProt Q9NZD1 1-345); experiment: FACS on MM.1S cells
T1 construct: also called hGPRC5D; CHO-K1-hGPRC5D^hi

human GPRC5D protein [2] = target: T1, human GPRC5D protein; experiment: FACS on NCI-H929 cells
human GPRC5D protein [3] = target: T1, human GPRC5D protein; experiment: cell-based or functional assay
T cell surface CD3 [4] = target: T2, T cell surface CD3 (human, UniProt P07766 23-207; P04234 22-171; P09693 23-182); experiment: cell-based or functional assay
T cell surface CD3 [5] = target: T2, T cell surface CD3; experiment: FACS on human CD3+ T cells

T2 sequence (P07766 23-207 limits assumed, chain 1 of 3): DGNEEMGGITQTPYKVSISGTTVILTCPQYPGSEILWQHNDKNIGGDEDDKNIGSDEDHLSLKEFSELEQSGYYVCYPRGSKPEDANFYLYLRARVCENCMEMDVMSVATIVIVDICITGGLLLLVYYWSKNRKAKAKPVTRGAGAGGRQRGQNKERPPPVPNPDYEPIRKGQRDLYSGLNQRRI
T2 sequence (P04234 22-171 limits assumed, chain 2 of 3): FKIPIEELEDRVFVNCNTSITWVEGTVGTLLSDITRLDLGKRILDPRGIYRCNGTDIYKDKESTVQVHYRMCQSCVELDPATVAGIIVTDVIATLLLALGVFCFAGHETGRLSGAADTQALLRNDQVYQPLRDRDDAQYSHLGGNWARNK
T2 sequence (P09693 23-182 limits assumed, chain 3 of 3): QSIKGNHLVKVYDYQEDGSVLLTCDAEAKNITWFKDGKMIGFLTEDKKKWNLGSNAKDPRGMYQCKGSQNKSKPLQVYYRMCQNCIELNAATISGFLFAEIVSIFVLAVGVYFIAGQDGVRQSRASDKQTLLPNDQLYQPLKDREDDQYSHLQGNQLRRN
T1 sequence (Q9NZD1 whole entry): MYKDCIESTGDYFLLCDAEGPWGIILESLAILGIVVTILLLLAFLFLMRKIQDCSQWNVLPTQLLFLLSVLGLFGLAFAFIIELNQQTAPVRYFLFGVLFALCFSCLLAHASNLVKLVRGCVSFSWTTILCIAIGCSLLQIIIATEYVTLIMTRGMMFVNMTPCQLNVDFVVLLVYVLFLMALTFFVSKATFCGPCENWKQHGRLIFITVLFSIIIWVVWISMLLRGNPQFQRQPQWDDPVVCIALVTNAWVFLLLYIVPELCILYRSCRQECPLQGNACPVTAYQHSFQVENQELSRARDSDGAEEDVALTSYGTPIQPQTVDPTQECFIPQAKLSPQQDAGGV

EC50 (human GPRC5D protein [1]): 3.71 nM
EC50 (human GPRC5D protein [2]): 16.7 nM
Lysis EC50(nM), MM.1S target cells with human PBMC (human GPRC5D protein [3]): 0.0335 nM
Lysis EC50(nM), NCI-H929 target cells with human PBMC (human GPRC5D protein [3]): 0.0146 nM
Lysis EC50(nM), RPMI-8226 target cells with human PBMC (human GPRC5D protein [3]): 0.136 nM
CD25/CD4 EC50(nM), activation of T cells in the presence of MM.1S (T cell surface CD3 [4]): 0.0596 nM
CD25/CD8 EC50(nM), activation of T cells in the presence of MM.1S (T cell surface CD3 [4]): 0.0448 nM
CD69/CD4 EC50(nM), activation of T cells in the presence of MM.1S (T cell surface CD3 [4]): 0.0438 nM
CD69/CD8 EC50(nM), activation of T cells in the presence of MM.1S (T cell surface CD3 [4]): 0.0226 nM
EC50 (T cell surface CD3 [5]): 37.9 nM
Top(MFI) (T cell surface CD3 [5]): 38000 MFI
B1: GC39 (bispecific antibody, human IgG1, kappa, L234A L235A)
heavy: EVQLVESGGGLVQPGGSRRVSCAASGFTFSSFGMHWVRQAPGKGLEWVAYISRGSSTIYYADTVKGRFTISRDNAKNSLYLQMNSLRAEDTAVYYCARSGYGSSSYYFDYWGQGTTVTVSSASTKGPSVFPLAPSSKSTSGGTAALGCLVKDYFPEPVTVSWNSGALTSGVHTFPAVLQSSGLYSLSSVVTVPSSSLGTQTYICNVNHKPSNTKVDKKVEPKSCDKTHTCPPCPAPEAAGGPSVFLFPPKPKDTLMISRTPEVTCVVVDVSHEDPEVKFNWYVDGVEVHNAKTKPREEQYNSTYRVVSVLTVLHQDWLNGKEYKCKVSNKALAAPIEKTISKAKGQPREPQVCTLPPSREEMTKNQVSLSCAVKGFYPSDIAVEWESNGQPENNYKTTPPVLDSDGSFFLVSKLTVDKSRWQQGNVFSCSVMHEALHNHYTQKSLSLSPGK
light: EIVLTQSPATLSASPGERATMSCRASSSIRSSYLHWYQQKPGQSPRLWIYSTSNLASGVPARFSGSGSGTDYTLTISSLEPEDAAVYYCQQFSGYPLTFGGGTKVEIKRTVAAPSVFIFPPSDEQLKSGTASVVCLLNNFYPREAKVQWKVDNALQSGNSQESVTEQDSKDSTYSLSSTLTLSKADYEKHKVYACEVTHQGLSSPVTKSFNRGEC
chain: ELVVTQEPSLTTSPGGTVTLTCRSSTGAVTTSNYANWVQQKPGQAPRGLIGGTNKRAPGTPARFSGSLLGGKAALTITGVQPEDEAEYYCALWYSNLWVFGGGTKLTVLGGGGSGGGGSGGGGSEVQLVESGGGLVQPGGSLRLSCAASGFTFNTYAMNWVRQAPGKGLEWVARIRSKYNNYATYYADSVKDRFTISRDDSKNTAYLQMNNLKTEDTAMYYCVRHGNFGNSYVSWFAYWGQGTLVTVSSGEPKSSDKTHTCPPCPAPEAAGGPSVFLFPPKPKDTLMISRTPEVTCVVVDVSHEDPEVKFNWYVDGVEVHNAKTKPREEQYNSTYRVVSVLTVLHQDWLNGKEYKCKVSNKALAAPIEKTISKAKGQPREPQVYTLPPCREEMTKNQVSLWCLVKGFYPSDIAVEWESNGQPENNYKTTPPVLDSDGSFFLYSKLTVDKSRWQQGNVFSCSVMHEALHNRYTQKSLSLSPGK
notes: also called anti-GPRC5D/anti-CD3 bispecific antibody GC39
